Data: US20140357851A1

Target: PCSK9 S123R (human) (UniProt Q8NBP7)
Test: Luminex bead assay

BmaxPerWT (% of wild type): 87.6
RawMaxPerWT (% of wild type): 88.1
B1: 21B12 (isotype as tested not stated) (antibody, V domains shown)
VH: QVQLVQSGAEVKKPGASVKVSCKASGYTLTSYGISWVRQAPGQGLEWMGWVSFYNGNTNYAQKLQGRGTMTTDPSTSTAYMELRSLRSDDTAVYYCARGYGMDVWGQGTTVTVSS
VL: QSALTQPASVSGSPGQSITISCTGTSSDVGGYNSVSWYQQHPGKAPKLMIYEVSNRPSGVSNRFSGSKSGNTASLTISGLQAEDEADYYCNSYTSTSMVFGGGTKLTVL
